Assay results from the supplement of paper PMC9233669.
Fewer inactive variants are shown than the library holds.

What was measured:
biotinyl-Ile-oxazolone = assay: self-aminoacylation, catalytic enhancement (BIO) (fold over background); higher = more active; k-Seq, kA / k0A0; sequences stand for … in GGGAAUGGAUCCACAUCUACGAAUUC…UUCACUGCAGACUUGACGAAGCUG
Procedure, shortened: (§1)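 Mutagenized RNA pools with a 21-nt variable region (0.43 μM) were reacted with each biotinyl-aminoacyl-oxazolone at 2–1250 μM for 90 minutes at room temperature, in 50 μL HEPES/NaCl/KCl/MgCl2/CaCl2 buffer containing 5% acetonitrile at pH 6.9–7.0. RNA captured on streptavidin was quantified by triplicate qPCR and by Illumina sequencing. The fraction reacted for each sequence was fit to a pseudo-first-order model with bootstrapping, and catalytic enhancement is the median kA divided by the uncatalyzed rate, taken as the low-activity peak of a bimodal Gaussian fit.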

biotinyl-Met-oxazolone = assay: self-aminoacylation, catalytic enhancement (BMO) (fold over background); higher = more active; k-Seq, kA / k0A0; sequences stand for … in GGGAAUGGAUCCACAUCUACGAAUUC…UUCACUGCAGACUUGACGAAGCUG
Procedure, shortened: as §1

biotinyl-Trp-oxazolone = assay: self-aminoacylation, catalytic enhancement (BWO) (fold over background); higher = more active; k-Seq, kA / k0A0; sequences stand for … in GGGAAUGGAUCCACAUCUACGAAUUC…UUCACUGCAGACUUGACGAAGCUG
Procedure, shortened: as §1

biotinyl-Leu-oxazolone = assay: self-aminoacylation, catalytic enhancement (BLO) (fold over background); higher = more active; k-Seq, kA / k0A0; sequences stand for … in GGGAAUGGAUCCACAUCUACGAAUUC…UUCACUGCAGACUUGACGAAGCUG
Procedure, shortened: as §1

biotinyl-Phe-oxazolone = assay: self-aminoacylation, catalytic enhancement (BFO) (fold over background); higher = more active; k-Seq, kA / k0A0; sequences stand for … in GGGAAUGGAUCCACAUCUACGAAUUC…UUCACUGCAGACUUGACGAAGCUG
Procedure, shortened: as §1

biotinyl-Val-oxazolone = assay: self-aminoacylation, catalytic enhancement (BVO) (fold over background); higher = more active; k-Seq, kA / k0A0; sequences stand for … in GGGAAUGGAUCCACAUCUACGAAUUC…UUCACUGCAGACUUGACGAAGCUG
Procedure, shortened: as §1

Row | Sequence | self-aminoacylation (biotinyl-Ile-oxazolone) | self-aminoacylation (biotinyl-Met-oxazolone) | self-aminoacylation (biotinyl-Trp-oxazolone) | self-aminoacylation (biotinyl-Leu-oxazolone) | self-aminoacylation (biotinyl-Phe-oxazolone) | self-aminoacylation (biotinyl-Val-oxazolone)
1 | AUUCACCUCGGUCUUCGGGUG [Fam2.2 aminoacylation ribozyme variant] | 3.77 | 3.71 | 4.87 | 6.72 | 33 | 4.01
2 | AUUCACCUGGAUCAUCGGGUG [Fam2.2 aminoacylation ribozyme variant] | 2.55 | 2.39 | 3.31 | 3.12 | 15.1 | 3.08
3 | AUUCACCUGGGUAAUCGGGUG [Fam2.2 aminoacylation ribozyme variant] | 3.15 | 4.71 | 4.84 | 5.16 | 30.1 | 2.88
4 | AUUCACCUGGGUCAUCCGGUG [Fam2.2 aminoacylation ribozyme variant] | 7.06 | 11.2 | 9.13 | 13.3 | 75.6 | 7.4
5 | AUUCACCUGGGUCAUCGGGAG [Fam2.2 aminoacylation ribozyme variant] | 1.65 | 1.86 | 2.29 | 1.51 | 7.65 | 1.62
6 | AUUCACCUUGAUCAUCGGGUG [Fam2.2 aminoacylation ribozyme variant] | 2.22 | 3.26 | 4.07 | 3.83 | 19 | 2.6
7 | AUUCACCUUGGACAUCGGGUG [Fam2.2 aminoacylation ribozyme variant] | 2.51 | 3.51 | 2.97 | 3.37 | 17.1 | 3.24
8 | AUUCACCUUGGCCAUCGGGUG [Fam2.2 aminoacylation ribozyme variant] | 2.9 | 4.02 | 4.95 | 4.98 | 31.6 | 3.88
9 | AUUCACCUUGGUCAUCGAGUG [Fam2.2 aminoacylation ribozyme variant] | 2.69 | 3.96 | 3.59 | 4.66 | 8.55 | 2.49
10 | AUUCACGUAGCUCAUCGGGUG [Fam2.2 aminoacylation ribozyme variant] | 2.24 | 3.44 | 2.88 | 2.42 | 17.7 | 3.52
11 | AUUCACGUAGGUCAUAGGGUG [Fam2.2 aminoacylation ribozyme variant] | 1.67 | 2.17 | 1.97 | 2.36 | 2.23 | 1.92
12 | AUUCACGUAGGUCAUCGCGUG [Fam2.2 aminoacylation ribozyme variant] | 7.52 | 16 | 11.1 | 15.8 | 119 | 9.95
13 | AUUCACGUAGGUCAUCGGGUA [Fam2.2 aminoacylation ribozyme variant] | 2.9 | 3.16 | 3.66 | 2.95 | 21 | 3.72
14 | AUUCACGUAGGUCAUCGGGUU [Fam2.2 aminoacylation ribozyme variant] | 2.03 | 2.4 | 2.93 | 2.54 | 14.9 | 2.74
15 | AUUCACGUAGGUCAUCUGGUG [Fam2.2 aminoacylation ribozyme variant] | 3.05 | 5.3 | 4.82 | 5.52 | 31.2 | 3.61
16 | AUUCACUAAGGUCAUCGGGUG [Fam2.2 aminoacylation ribozyme variant] | 3.57 | 5.33 | 5.99 | 6.72 | 37.7 | 3.66
17 | AUUCACUGAGGUCAUCGGGUG [Fam2.2 aminoacylation ribozyme variant] | 4.51 | 7.22 | 5.64 | 9.09 | 55.7 | 4.37
18 | AUUCACUUAGGUCAACGGGUG [Fam2.2 aminoacylation ribozyme variant] | 2.52 | 3.84 | 3.53 | 4.92 | 21.2 | 2.26
19 | AUUCACUUAGGUCAUCUGGUG [Fam2.2 aminoacylation ribozyme variant] | 2.06 | 3.11 | 3.19 | 3.65 | 12.6 | 2.1
20 | AUUCACUUAGGUCAUGGGGUG [Fam2.2 aminoacylation ribozyme variant] | 3.61 | 5.58 | 5.74 | 7.09 | 46.2 | 3.31
21 | AUUCACUUAGGUCAUUGGGUG [Fam2.2 aminoacylation ribozyme variant] | 2.3 | 3.64 | 3.76 | 4.48 | 25.2 | 2.39
22 | AUUCAGAUAGGUCAUCGGGUG [Fam2.2 aminoacylation ribozyme variant] | 4.19 | 6.75 | 5.8 | 7.3 | 49.6 | 3.77

Row | Sequence | self-aminoacylation (biotinyl-Ile-oxazolone) | self-aminoacylation (biotinyl-Met-oxazolone) | self-aminoacylation (biotinyl-Trp-oxazolone) | self-aminoacylation (biotinyl-Leu-oxazolone) | self-aminoacylation (biotinyl-Phe-oxazolone) | self-aminoacylation (biotinyl-Val-oxazolone)
23 | AUUCAGCAAGGUCAUCGGGUG [Fam2.2 aminoacylation ribozyme variant] | 4.51 | 6.23 | 7 | 7.63 | 47.9 | 4.9
24 | AUUCAGCUAGGUAAUCGGGUG [Fam2.2 aminoacylation ribozyme variant] | 2.69 | 4.03 | 4.43 | 4.57 | 23.8 | 2.65
25 | AUUCAGCUAGGUCAUAGGGUG [Fam2.2 aminoacylation ribozyme variant] | 0.975 | 1.09 | 1.17 | 1.24 | 1.15 | 1.23
26 | AUUCAGCUAGGUCAUUGGGUG [Fam2.2 aminoacylation ribozyme variant] | 2.04 | 2.62 | 3.25 | 2.38 | 15 | 2.55
27 | AUUCAGCUAGGUCGUCGGGUG [Fam2.2 aminoacylation ribozyme variant] | 2.53 | 3.24 | 3.08 | 3.24 | 13.1 | 2.62
28 | AUUCAGCUAGGUGAUCGGGUG [Fam2.2 aminoacylation ribozyme variant] | 3.84 | 4.52 | 4.6 | 5.32 | 25.3 | 4.04
29 | AUUCAGCUAUGUCAUCGGGUG [Fam2.2 aminoacylation ribozyme variant] | 2.19 | 3.17 | 3.19 | 3.03 | 16.6 | 2.63
30 | AUUCAGUUAGGUCAUCGGGUG [Fam2.2 aminoacylation ribozyme variant] | 3.04 | 3.8 | 4.04 | 4.86 | 25.6 | 3.12
31 | AUUCAUCUAAGUCAUCGGGUG [Fam2.2 aminoacylation ribozyme variant] | 6.41 | 10.9 | 10.9 | 15 | 86.6 | 5.64
32 | AUUCAUCUACGUCAUCGGGUG [Fam2.2 aminoacylation ribozyme variant] | 3.69 | 6.12 | 7.17 | 8.74 | 53 | 3.82
33 | AUUCAUCUAGGUCACCGGGUG [Fam2.2 aminoacylation ribozyme variant] | 3.85 | 5.35 | 5.32 | 6.82 | 36.8 | 3.34
34 | AUUCAUCUAGGUCAUCGGGUC [Fam2.2 aminoacylation ribozyme variant] | 1.07 | 1.21 | 1.02 | 1.22 | 2.17 | 1.28
35 | AUUCAUCUAGGUCAUCGGGUG [Fam2.2 aminoacylation ribozyme variant] | 4.88 | 7.46 | 7.12 | 9.76 | 39.2 | 4.7
36 | AUUCAUCUAGGUCGUCGGGUG [Fam2.2 aminoacylation ribozyme variant] | 1.93 | 2.1 | 1.68 | 2.27 | 4.73 | 1.86
37 | AUUCCCAUGGUCAUCGAGUGA [Fam2.1 aminoacylation ribozyme variant] | 5.75 | 10.4 | 12.9 | 11.3 | 51.4 | 5.75
38 | AUUCCCCCAGGUCAUCGGGUG [Fam2.2 aminoacylation ribozyme variant] | 14 | 17.1 | 17.1 | 24.7 | 174 | 11.4
39 | AUUCCCCUAGAUCAUCGGGUG [Fam2.2 aminoacylation ribozyme variant] | 7.3 | 9.42 | 9.85 | 11.9 | 75.1 | 6.64
40 | AUUCCCCUAGGGCAUCGGGUG [Fam2.2 aminoacylation ribozyme variant] | 7.87 | 10.3 | 10.4 | 12.4 | 42.8 | 6.4
41 | AUUCCCCUAGGUCACCGGGUG [Fam2.2 aminoacylation ribozyme variant] | 13.9 | 20.3 | 21.7 | 26.2 | 163 | 13.4
42 | AUUCCCCUAGGUCAUAGGGUG [Fam2.2 aminoacylation ribozyme variant] | 3.38 | 4.99 | 4.78 | 6.57 | 17.1 | 3.08
43 | AUUCCCCUAGGUCAUCGGGGG [Fam2.2 aminoacylation ribozyme variant] | 8.54 | 8.39 | 13.6 | 13.3 | 51.6 | 10.2
